Data taken from article PMC3575409, “Identification of a Novel Protein-Protein Interaction Motif Mediating Interaction of GPCR-Associated Sorting Proteins with G Protein-Coupled Receptors” (PLoS ONE, 2013).
Values joined by “and” are separate entries in the source; they are usually repeats but may differ in a detail not shown here. Identical values can stand only once.

Columns and labels:
[1] = system: GFP-tagged ADRB2 in HEK293 cells; test: Co-immunoprecipitation, ADRB2; type: cell-based; settings: 48 h expression, anti-GFP immunoprecipitation
Procedure: HEK293 cells stably expressing N-terminal GFP-tagged ADRB1, ADRB2, CALCR and M1 or MyrPalm-mYFP were transfected with pcDNA3.1 containing the sequence for a central domain of GASP-1 (AA 380 to 1073) using JetPEI reagent (polyplus transfection) according to the instructions from the manufacturer. After 48 h of expression, cells were washed twice with PBS and lysed in a buffer containing 10 mM Tris-HCl, pH 7.4, 150 mM NaCl, 25 mM KCl, 0.3% Triton X-100 and cOmplete protease inhibitors (Roche) for 1 h at 4°C under agitation. 500 µg of cleared lysates were incubated with 1 µg of a mouse monoclonal anti-GFP antibody (Invitrogen) overnight at 4°C, followed by an incubation with 40 µl of protein A-Sepharose beads for an additional 2 h at 4°C. Beads were then washed five times in lysis buffer and precipitates were resolved on an 8% gel by SDS–PAGE and electrotransferred to immobilon-P membranes (Millipore) in 50 mM Tris-boric acid for 1 h at 300 mA. Membranes were blocked with 5% non-fat powder milk in TBS-Tween (50 mM Tris-HCl pH 8, 150 mM NaCl, 0.4% Tween-20) for 1 h at room temperature. […] For immunodetection of GASP or GFP-tagged receptors directly from cell lysates, 10 µg of proteins were loaded on SDS gels and analyzed following the procedure described above. Finally, membranes were washed in TBS-Tween and detected by chemiluminescence (ECL prime, GE Healthcare). […]

[2] = system: full-length CNR2 (cannabinoid receptor type 2); test: SPR saturation binding, CNR2; set-up: species or system human
Procedure: The human ADRB2 and CNR2 receptors were produced using the P. pastoris expression system as previously described, [16]. After methanol-induced receptor expression, cells were washed with PBS pH 7.0 and resuspended in ice-cold buffer A (50 mM Tris-HCl pH 7.4, 500 mM NaCl, 10% glycerol, 5 mM EDTA, 1 mM PMSF, 2 mM DDT). Cells were then lysed with two cycles of 20 s shaking and 20 s cooling on ice using 0.5 mm glass beads in a FastPrep 24 device. Unbroken cells and cell debris were removed by centrifugation (3000 g, 5 min, 4°C) and the membrane fraction from the supernatant was pelleted by ultracentrifugation (100,000 g, 45 min, 4°C). […] Finally membranes were resuspended in buffer B and quantified with the bicinchoninic acid (BCA) method (Pierce).
Approximately 150 mg membrane proteins were extracted by 5 min incubation at room temperature in buffer C (50 mM Tris-HCl pH 7.4, 500 mM NaCl, 10% glycerol, 1 mM PMSF, 2 mM DTT, 50 mM imidazole, 1% (w/v) DDM, 0.1% (w/v) CHS). […] Imidazole was removed from the eluted fraction using a HiTrap 5 ml desalting column (GE Healthcare), purified proteins were quantified using the BCA assay (Pierce) and receptor integrity was analyzed by SDS-PAGE. […]

dissociation rate constant k d ([2]; 25°C, 50 mM Tris-HCl pH 7.4, 150 mM NaCl, 0.1% DDM, 0.01% CHS, captured GST-tagged central domain (AA 380–1073)): 6.5±0.1×10^−4 s^−1 and < 10^−3 s^−1
B1: central domain of GASP-1: central portion of GASP-1 (AA 380 to 1073) that contains 19 GASP motif (protein)
chain: MTKEEAKTKARARAKQEARSEEEALIGTWFWATDESSMADEASIESSLQVEDESIIGSWFWTEEEASMGTGASSKSRPRTDGERIGDSLFGAREKTSMKTGAEATSESILAADDEQVIIGSWFWAGEEVNQEAEEETIFGSWFWVIDAASVESGVGVSCESRTRSEEEEVIGPWFWSGEQVDIEAGIGEEARPGAEEETIFGSWFWAENQTYMDCRAETSCDTMQGAEEEEPIIGSWFWTRVEACVEGDVNSKSSLEDKEEAMIPCFGAKEEVSMKHGTGVRCRFMAGAEETNNKSCFWAEKEPCMYPAGGGSWKSRPEEEEDIVNSWFWSRKYTKPEAIIGSWLWATEESNIDGTGEKAKLLTEEETIINSWFWKEDEAISEATDREESRPEAEEGDIIGSWFWAGEEDRLEPAAETREEDRLAAEKEGIVGSWFGAREETIRREAGSCSKSSPKAEEEEVIIGSWFWEEEASPEAVAGVGFESKPGTEEEEITVGSWFWPEEEASIQAGSQAVEEMESETEEETIFGSWFWDGKEVSEEAGPCCVSKPEDDEEMIVESWFWSRDKAIKETGTVATCESKPENEEGAIVGSWFEAEDEVDNRTDNGSNCGSRTLADEDEAIVGSWFWAGDEAHFESNPSPVFRAICRSTCSVEQEPDPSRRPQSWEEVTVQFKPGPWGRVGFPSISPFRFPKE
modifications: left off: GST, N-terminal, kept
notes: central portion of GASP-1 (AA 380 to 1073) that contains 19 GASP motif
co-immunoprecipitation with ADRB2 [1]: co-immunoprecipitated | kinetics of the interaction ([2]; full-length CNR2): very stable and had a slow association rate
